Results reported in PMC10085042 (PLOS ONE, 2023).

Columns and labels:
[1] = target: T1, SARS-CoV-2 nsp9 (SARS-CoV-2, UniProt P0DTD1); experiment: crystal structure; settings: both partners purified
T1 construct: also called nsp9_(COV19); Nsp9_(COV19)

[2] = target: the molecule itself; experiment: crystal structure

Row | Binder | binding result [1] | binding result [2]
1 | anti-nsp9 VHH_(2nsp23) (VHH) VHH: QVQLQESGGGLVQPGGSLRLSCAASGLAFSMYTMGWFRQAPGKEREFVAMIISSGDSTDYADSVKGRFTISRDNGKNTVYLQMDSLKPEDTAVYYCAAPKFRYYFSTSPGDFDSWGQGTQVTVSS | binds | –
2 | SARS-CoV-2 nsp9 (natural protein, UniProt P0DTD1 4141-4253, looked up, also called nsp9_(COV19); Nsp9_(COV19)) NNELSPVALRQMSCAAGTTQTACTDDNALAYYNTTKGGRFVLALLSDLQDLKWARFPKSDGTGTIYTELEPPCRFVTDTPKGPKVKYLYFIKGLNNLNRGMVLGSLAATVRLQ | – | binds
